From patent US20040018561 come the findings set out here.

Data set [1] has as its target N-2-[(7-methoxy-2-oxo-2H-chromen-4-yl)acetyl]-D-arginyl-L-prolyl-L-leucylglycyl-6-(benzyloxy)-L-norleucyl-3-[(2,4-dinitrophenyl)amino]-L-alanyl-L-alanyl-D-arginyl-D-alpha-glutamyl-D-argininamide.
The target of data set [2] is N-2-[(7-methoxy-2-oxo-2H-chromen-4-yl)acetyl]-D-arginyl-L-prolyl-L-leucylglycyl-6-phenoxy-L-norleucyl-3-[(2,4-dinitrophenyl)amino]-L-alanyl-L-alanyl-D-arginyl-D-alpha-glutamyl-D-argininamide.
The target in data set [3] is N-2-[(7-methoxy-2-oxo-2H-chromen-4-yl)acetyl]-D-arginyl-L-prolyl-L-leucylglycyl-L-leucyl-3-[(2,4-dinitrophenyl)amino]-L-alanyl-L-alanyl-D-arginyl-D-alpha-glutamyl-D-argininamide.
Data set [4] addresses N-2-[(7-methoxy-2-oxo-2H-chromen-4-yl)acetyl]-L-arginyl-L-prolyl-L-leucylglycyl-6-(benzyloxy)-L-norleucyl-3-[(2,4-dinitrophenyl)amino]-L-alanyl-L-alanyl-L-arginyl-L-alpha-glutamyl-L-argininamide.
Data set [5] addresses N-2-[(7-methoxy-2-oxo-2H-chromen-4-yl)acetyl]-L-arginyl-L-prolyl-L-leucylglycyl-L-leucyl-3-[(2,4-dinitrophenyl)amino]-L-alanyl-L-alanyl-D-arginyl-D-alpha-glutamyl-D-argininamide.
In data set [6] the target is N-2-[(7-methoxy-2-oxo-2H-chromen-4-yl)acetyl]-L-arginyl-L-prolyl-L-leucylglycyl-L-leucyl-3-[(2,4-dinitrophenyl)amino]-L-alanyl-L-alanyl-L-arginyl-L-alpha-glutamyl-L-argininamide.

B1: MMP-7 (protein)
chain: YSLFPNSPKWTSKVVTYRIVSYTRDLPHITVDRLVSKALNMWGKEIPLHFRKVVWGTADIMIGFARGAHGDSYPFDGPGNTLAHAFAPGTGLGGDAHFDEDERWTDGSSLGINFLYAATHELGHSLGMGHSSDPNAVMYPTYGNGDPQNFKLSQDDIKGIQKLYGKRSNSRKK
In the case of B1, the Km (as a rule, the concentration of substrate that gives half-maximal velocity) in data set [1] is 94.7 µM; in data set [3] it was 81.2 µM; in data set [5], 25 µM; in data set [6], 26.4 µM. The kcat/Km (in general, the turnover number divided by the Michaelis constant) in data set [1] is 2980 M⁻¹ s⁻¹; in data set [2], 0 M⁻¹ s⁻¹; in data set [3] it was 22000 M⁻¹ s⁻¹; in data set [4], 0 M⁻¹ s⁻¹; in data set [5] it was 120000 M⁻¹ s⁻¹; in data set [6] it was 142000 M⁻¹ s⁻¹.

B2: MMP-1 (protein)
chain: FVLTEGNPRWEQTHLTYRIENYTPDLPRADVDHAIEKAFQLWSNVTPLTFTKVSEGQADIMISFVRGDHRDNSPFDGPGGNLAHAFQPGPGIGGDAHFDEDERWTNNFREYNLHRVAAHELGHSLGLSHSTDIGALMYPSYTFSGDVQLAQDDIDGIQAIYGRSQNPVQPIGPQTPKACDSKLTFDAITTIRGEVMFFKDRFYMRTNPFYPEVELNFISVFWPQLPNGLEAAYEFADRDEVRFFKGNKYWAVQGQNVLHGYPKDIYSSFGFPRTVKHIDAALSEENTGKTYFFVANKYWRYDEYKRSMDPGYPKMIAHDFPGIGHKVDAVFMKDGFFYFFHGTRQYKFDPKTKRILTLQKANSWFNCRKN
As for B2, the Km in data set [1] was 35.1 µM; in data set [3], 49 µM; in data set [5], 17.3 µM; in data set [6], 16 µM. The kcat/Km worked out at 3600 M⁻¹ s⁻¹ in data set [1]; 0 M⁻¹ s⁻¹ in data set [2]; 57000 M⁻¹ s⁻¹ in data set [3]; 0 M⁻¹ s⁻¹ in data set [4]; 176000 M⁻¹ s⁻¹ in data set [5]; 255000 M⁻¹ s⁻¹ in data set [6].

B3: MMP-2 (protein)
chain: YNFFPRKPKWDKNQITYRIIGYTPDLDPETVDDAFARAFQVWSDVTPLRFSRIHDGEADIMINFGRWEHGDGYPFDGKDGLLAHAFAPGTGVGGDSHFDDDELWTLGEGQVVRVKYGNADGEYCKFPFLFNGKEYNSCTDTGRSDGFLWCSTTYNFEKDGKYGFCPHEALFTMGGNAEGQPCKFPFRFQGTSYDSCTTEGRTDGYRWCGTTEDYDRDKKYGFCPETAMSTVGGNSEGAPCVFPFTFLGNKYESCTSAGRSDGKMWCATTANYDDDRKWGFCPDQGYSLFLVAAHEFGHAMGLEHSQDPGALMAPIYTYTKNFRLSQDDIKGIQELYGASPDIDLGTGPTPTLGPVTPEICKQDIVFDGIAQIRGEIFFFKDRFIWRTVTPRDKPMGPLLVATFWPELPEKIDAVYEAPQEEKAVFFAGNEYWIYSASTLERGYPKPLTSLGLPPDVQRVDAAFNWSKNKKTYIFAGDKFWRYNEVKKKMDPGFPKLIADAWNAIPDNLDAVVDLQGGGHSYFFKGAYYLKLENQSLKSVKFGSIKSDWLGC
In the case of B3, the Km in data set [1] amounted to 3.7 µM; in data set [2], 3.6 µM; in data set [3], 9.9 µM; in data set [4] it was 8.3 µM; in data set [5], 16.3 µM; in data set [6] it was 16.5 µM. Further, the kcat/Km was 600000 M⁻¹ s⁻¹ in data set [1]; 1.96e+06 M⁻¹ s⁻¹ in data set [2]; 178000 M⁻¹ s⁻¹ in data set [3]; 1.34e+06 M⁻¹ s⁻¹ in data set [4]; 681000 M⁻¹ s⁻¹ in data set [5]; 565000 M⁻¹ s⁻¹ in data set [6].
